In US20250163127A1 one finds Fold change to WT, MFI and Fold change to WT CD80 data, which are given here for 15 molecules.

For one assay, the target named is PD-L1 (human). Description: flow cytometry, CHO cells stably expressing PD-L1. For orientation: In flow cytometry, cells or beads pass a laser one at a time.
The target in assay [1] is CD28 (human) (UniProt P10747). Description: flow cytometry, Jurkat cells (CD28).
Another assay concerns the target CTLA4 (human). Description: flow cytometry, CHO cells stably expressing CTLA4.
For assay [2], the target named is CD28 (human) (UniProt P10747). Description: flow cytometry, transfected cells.

Chain of PD-L1 (human) (chain, as listed by the source): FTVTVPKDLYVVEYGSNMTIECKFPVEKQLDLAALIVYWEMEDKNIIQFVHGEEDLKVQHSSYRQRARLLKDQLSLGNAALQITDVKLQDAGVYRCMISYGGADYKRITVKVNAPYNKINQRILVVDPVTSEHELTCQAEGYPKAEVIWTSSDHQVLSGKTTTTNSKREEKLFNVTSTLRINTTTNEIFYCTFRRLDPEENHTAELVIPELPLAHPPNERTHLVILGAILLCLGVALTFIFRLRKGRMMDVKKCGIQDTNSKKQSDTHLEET
Chain of CTLA4 (human) (chain, as listed by the source): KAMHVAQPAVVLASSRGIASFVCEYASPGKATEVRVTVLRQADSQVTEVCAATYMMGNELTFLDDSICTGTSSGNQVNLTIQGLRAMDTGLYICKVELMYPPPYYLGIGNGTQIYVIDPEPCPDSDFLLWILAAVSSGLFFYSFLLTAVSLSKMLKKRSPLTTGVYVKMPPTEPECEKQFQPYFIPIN

B1: CD80 variant A26E/Q33R/E35D/M47L/L85Q/K86E IgV-Fc (Fc fusion)
chain: VIHVTKEVKEVATLSCGHNVSVEELEQTRIYWRKDKKMVLTMMSGDLNIWPEYKNRTIFDITNNLSIVILALRPSDEGTYECVVQEYEKDAFKREHLAEVT
B1: in the assay with PD-L1 (human), the Fold change to WT was 9.56 fold and the MFI at 33.3 nM was determined as 76000 MFI. Also, in the assay with CD28 (human) [1], the Fold change to WT was found to be 0.04 fold and the MFI at 33.3 nM worked out at 275 MFI. In the assay with CTLA4 (human), this molecule displayed a Fold change to WT CD80 of 0.01 fold and an MFI at 33.3 nM of 1280 MFI.

B2: CD80 variant A26E/Q33R/E35D/M47L/L85Q IgV-Fc (Fc fusion)
chain: VIHVTKEVKEVATLSCGHNVSVEELEQTRIYWRKDKKMVLTMMSGDLNIWPEYKNRTIFDITNNLSIVILALRPSDEGTYECVVQKYEKDAFKREHLAEVT
In the assay with PD-L1 (human), B2 displayed a Fold change to WT of 10.3 fold and an MFI at 33.3 nM of 81500 MFI. In the assay with CD28 (human) [1], the Fold change to WT came to 0.03 fold and the MFI at 33.3 nM was 264 MFI. For the same molecule, in the assay with CTLA4 (human), the Fold change to WT CD80 is 0.01 fold and the MFI at 33.3 nM is 1280 MFI.

B3: CD80 variant Q33K/E35D/M47V/K89E/K93R IgV-Fc (Fc fusion)
chain: VIHVTKEVKEVATLSCGHNVSVEELAQTRIYWKKDKKMVLTMMSGDVNIWPEYKNRTIFDITNNLSIVILALRPSDEGTYECVVLKYEEDAFRREHLAEVT
Turning to B3, the MFI at 33.3 nM worked out at 39100 MFI in the assay with PD-L1 (human) and 276 MFI with CD28 (human) [1].

B4: CD80 variant E35D/M47L/L85Q IgV-Fc (Fc fusion)
chain: VIHVTKEVKEVATLSCGHNVSVEELAQTRIYWQKDKKMVLTMMSGDLNIWPEYKNRTIFDITNNLSIVILALRPSDEGTYECVVQKYEKDAFKREHLAEVT
In the assay with PD-L1 (human), B4 gave a Fold change to WT of 4.18 fold and an MFI at 33.3 nM of 33200 MFI. In the assay with CD28 (human) [1], the Fold change to WT was determined as 0.08 fold and the MFI at 33.3 nM stood at 646 MFI. Besides, in the assay with CTLA4 (human), the Fold change to WT CD80 is 1.88 fold and the MFI at 33.3 nM was 336000 MFI.

B5: ICOSL ECD-Fc N84Q (Fc fusion)
chain: DTQEKEVRAMVGSDVELSCACPEGSRFDLNDVYVYWQTSESKTVVTYHIPQNSSLENVDSRYRNRALMSPAGMLRGDFSLRLFQVTPQDEQKFHCLVLSQSLGFQEVLSVEVTLHVAANFSVPVVSAPHSPSQDELTFTCTSINGYPRPNVYWINKTDNSLLDQALQNDTVFLNMRGLYDVVSVLRIARTPSVNIGCCIENVLLQQNLTVGSQTGNDIGERDKITENPVSTGEKNAAT
B5 returned an MFI with CD28 (human) [2] of 1760 MFI.

B6: ICOSL ECD-Fc N52Q/N119Q/N155Q (Fc fusion)
chain: DTQEKEVRAMVGSDVELSCACPEGSRFDLNDVYVYWQTSESKTVVTYHIPQQSSLENVDSRYRNRALMSPAGMLRGDFSLRLFNVTPQDEQKFHCLVLSQSLGFQEVLSVEVTLHVAAQFSVPVVSAPHSPSQDELTFTCTSINGYPRPNVYWIQKTDNSLLDQALQNDTVFLNMRGLYDVVSVLRIARTPSVNIGCCIENVLLQQNLTVGSQTGNDIGERDKITENPVSTGEKNAAT
As for B6, the MFI with CD28 (human) [2] came to 552 MFI.

B7: ICOSL ECD-Fc N155Q/N207Q (Fc fusion)
chain: DTQEKEVRAMVGSDVELSCACPEGSRFDLNDVYVYWQTSESKTVVTYHIPQNSSLENVDSRYRNRALMSPAGMLRGDFSLRLFNVTPQDEQKFHCLVLSQSLGFQEVLSVEVTLHVAANFSVPVVSAPHSPSQDELTFTCTSINGYPRPNVYWIQKTDNSLLDQALQNDTVFLNMRGLYDVVSVLRIARTPSVNIGCCIENVLLQQQLTVGSQTGNDIGERDKITENPVSTGEKNAAT
For the molecule B7, the MFI in the assay with CD28 (human) [2] amounted to 1490 MFI.

B8: ICOSL ECD-Fc N119Q/N207Q (Fc fusion)
chain: DTQEKEVRAMVGSDVELSCACPEGSRFDLNDVYVYWQTSESKTVVTYHIPQNSSLENVDSRYRNRALMSPAGMLRGDFSLRLFNVTPQDEQKFHCLVLSQSLGFQEVLSVEVTLHVAAQFSVPVVSAPHSPSQDELTFTCTSINGYPRPNVYWINKTDNSLLDQALQNDTVFLNMRGLYDVVSVLRIARTPSVNIGCCIENVLLQQQLTVGSQTGNDIGERDKITENPVSTGEKNAAT
As to B8, the MFI with CD28 (human) [2] is 1860 MFI.

B9: ICOSL ECD-Fc N84Q/N168Q/N207Q (Fc fusion)
chain: DTQEKEVRAMVGSDVELSCACPEGSRFDLNDVYVYWQTSESKTVVTYHIPQNSSLENVDSRYRNRALMSPAGMLRGDFSLRLFQVTPQDEQKFHCLVLSQSLGFQEVLSVEVTLHVAANFSVPVVSAPHSPSQDELTFTCTSINGYPRPNVYWINKTDNSLLDQALQQDTVFLNMRGLYDVVSVLRIARTPSVNIGCCIENVLLQQQLTVGSQTGNDIGERDKITENPVSTGEKNAAT
In the case of B9, the MFI with CD28 (human) [2] was determined as 737 MFI.

B10: ICOSL ECD-Fc N52Q/N84Q/N119Q/N207Q (Fc fusion)
chain: DTQEKEVRAMVGSDVELSCACPEGSRFDLNDVYVYWQTSESKTVVTYHIPQQSSLENVDSRYRNRALMSPAGMLRGDFSLRLFQVTPQDEQKFHCLVLSQSLGFQEVLSVEVTLHVAAQFSVPVVSAPHSPSQDELTFTCTSINGYPRPNVYWINKTDNSLLDQALQNDTVFLNMRGLYDVVSVLRIARTPSVNIGCCIENVLLQQQLTVGSQTGNDIGERDKITENPVSTGEKNAAT
In turn, B10 gave an MFI in the assay with CD28 (human) [2] of 602 MFI.

B11: ICOSL ECD-Fc N168Q (Fc fusion)
chain: DTQEKEVRAMVGSDVELSCACPEGSRFDLNDVYVYWQTSESKTVVTYHIPQNSSLENVDSRYRNRALMSPAGMLRGDFSLRLFNVTPQDEQKFHCLVLSQSLGFQEVLSVEVTLHVAANFSVPVVSAPHSPSQDELTFTCTSINGYPRPNVYWINKTDNSLLDQALQQDTVFLNMRGLYDVVSVLRIARTPSVNIGCCIENVLLQQNLTVGSQTGNDIGERDKITENPVSTGEKNAAT
Regarding B11, the MFI with CD28 (human) [2] was determined as 1410 MFI.

B12: ICOSL ECD-Fc N119Q/N168Q (Fc fusion)
chain: DTQEKEVRAMVGSDVELSCACPEGSRFDLNDVYVYWQTSESKTVVTYHIPQNSSLENVDSRYRNRALMSPAGMLRGDFSLRLFNVTPQDEQKFHCLVLSQSLGFQEVLSVEVTLHVAAQFSVPVVSAPHSPSQDELTFTCTSINGYPRPNVYWINKTDNSLLDQALQQDTVFLNMRGLYDVVSVLRIARTPSVNIGCCIENVLLQQNLTVGSQTGNDIGERDKITENPVSTGEKNAAT
In turn, B12 returned an MFI with CD28 (human) [2] of 2530 MFI.

B13: ICOSL ECD-Fc N119Q/N168Q/N207Q (Fc fusion)
chain: DTQEKEVRAMVGSDVELSCACPEGSRFDLNDVYVYWQTSESKTVVTYHIPQNSSLENVDSRYRNRALMSPAGMLRGDFSLRLFNVTPQDEQKFHCLVLSQSLGFQEVLSVEVTLHVAAQFSVPVVSAPHSPSQDELTFTCTSINGYPRPNVYWINKTDNSLLDQALQQDTVFLNMRGLYDVVSVLRIARTPSVNIGCCIENVLLQQQLTVGSQTGNDIGERDKITENPVSTGEKNAAT
As to B13, the MFI in the assay with CD28 (human) [2] was determined as 921 MFI.

B14: ICOSL ECD-Fc N84Q/N119Q (Fc fusion)
chain: DTQEKEVRAMVGSDVELSCACPEGSRFDLNDVYVYWQTSESKTVVTYHIPQNSSLENVDSRYRNRALMSPAGMLRGDFSLRLFQVTPQDEQKFHCLVLSQSLGFQEVLSVEVTLHVAAQFSVPVVSAPHSPSQDELTFTCTSINGYPRPNVYWINKTDNSLLDQALQNDTVFLNMRGLYDVVSVLRIARTPSVNIGCCIENVLLQQNLTVGSQTGNDIGERDKITENPVSTGEKNAAT
Molecule B14 gave an MFI in the assay with CD28 (human) [2] of 1490 MFI.

B15: ICOSL ECD-Fc N52Q/N84Q (Fc fusion)
chain: DTQEKEVRAMVGSDVELSCACPEGSRFDLNDVYVYWQTSESKTVVTYHIPQQSSLENVDSRYRNRALMSPAGMLRGDFSLRLFQVTPQDEQKFHCLVLSQSLGFQEVLSVEVTLHVAANFSVPVVSAPHSPSQDELTFTCTSINGYPRPNVYWINKTDNSLLDQALQNDTVFLNMRGLYDVVSVLRIARTPSVNIGCCIENVLLQQNLTVGSQTGNDIGERDKITENPVSTGEKNAAT
Molecule B15 came in with an MFI with CD28 (human) [2] of 1680 MFI.
